Reference: patent US20090226437A1 (Genentech, published 2009)
Where a chain is given by its changes, count along the chain named. Names may count otherwise.

Legend:
[1] = target: alphaEbeta7 on alphaEbeta7-transfected 293 cells (human) (UniProt P38570); assay: cell adhesion inhibition, alphaEbeta7 293 cells on coated huE-Cadherin, experiment 1 of 3
[2] = target: alphaEbeta7 on alphaEbeta7-transfected 293 cells (human) (UniProt P38570); assay: cell adhesion inhibition, alphaEbeta7 293 cells on coated huE-Cadherin, experiment 3 of 3
[3] = target: alphaEbeta7 on alphaEbeta7-transfected 293 cells (human) (UniProt P38570); assay: cell adhesion inhibition, alphaEbeta7 293 cells on coated huE-Cadherin, experiment 2 of 3
[4] = target: T1, Full length human integrin alpha4beta7 (expressed in 293 cells, purified by Fib504 affinity chromatography) (human, UniProt P13612 34-1032; P26010 20-798); assay: BIAcore (column head 'BIAcore Affinity Assay (nM)'); per paragraph 379 the Fab was immobilised on a CM5 chip and human integrin alpha4beta7 injected. The row shows unchanged L1 … and L2 KYASQSIS in the 'Fib504•K RF framework', i.e. the starting Fib504K-RF graft
T1 construct: mature; also called immobilized alpha4beta7
Procedure: (§1) Affinity determinations were performed by surface plasmon resonance using a BIAcore™-3000 (Biacore, Piscataway, N.J.). Humanized Fib504 Fab variants were immobilized in 10 mM acetate pH 4.5 (ranging from 250 to 1500 response units (RU)) on a CM5 sensor chip and 2-fold dilutions of human integrin alpha4beta7 (1.5 to 770 nM) in TBSM containing 2% n-octylglucoside were injected. Each sample was analyzed with 5-minute association and 5 to 60-minute dissociation times. After each injection, the chip was regenerated using three 1-minute injections of 8 M urea. Binding response was corrected by subtracting the RU from a blank flow cell. A 1:1 Languir model of simultaneous fitting of kₒₙ and koff was used for kinetics analysis.
(§2) Libraries were generated as before using a soft randomization strategy simultaneously at each of the 6 HVRs for the Fib504K-RL and Fib504K-RF grafts and sorted on immobilized alpha4beta7 for 4 rounds of selection as described above. Enrichment was only observed for the library based on the Fib504K-RF graft. […] Most clones contained the change Y32L; in addition position 31 was frequently changed to D, S, P or N (FIG. 1C). In addition to the starting graft, Fib504K-RF, 3 clones were expressed and purified as Fab protein and further analyzed by Biacore as described above. […]

[5] = target: T1, Full length human integrin alpha4beta7 …; assay: SPR (BIAcore-3000), Fab immobilized, alpha4beta7 injected
Procedure: as §1
Libraries were generated as before using a soft randomization strategy simultaneously at each of the 6 HVRs for the Fib504K-RL and Fib504K-RF grafts and sorted on immobilized alpha4beta7 for 4 rounds of selection as described above. Enrichment was only observed for the library based on the Fib504K-RF graft. […] Most clones contained the change Y32L; in addition position 31 was frequently changed to D, S, P or N (FIG. 1C). In addition to the starting graft, Fib504K-RF, 3 clones were expressed and purified as Fab protein and further analyzed by Biacore as described above. […] The results of the Biacore analysis are shown in Table 3, below, and indicate that selected variation in the HVRs and/or framework regions, disclosed herein, generated antagonist antibodies to alpha4beta7 having improved affinity relative to the starting antibody.

[6] = target: T1, Full length human integrin alpha4beta7 …; assay: BIAcore (column head 'BIAcore Affinity Assay (nM)'); per paragraph 379 the Fab was immobilised on a CM5 chip and human integrin alpha4beta7 injected
Procedure: as §1, §2

[7] = target: T1, Full length human integrin alpha4beta7 …; assay: SPR (BIAcore), Fab; reference Fib504 Fab
Procedure: as §1, §2

[8] = target: T1, Full length human integrin alpha4beta7 …; assay: phage-displayed Fab on immobilized alpha4beta7
[9] = target: T1, Full length human integrin alpha4beta7 …; assay: phage binding assay (OD): Fab displayed on phage, immobilised alpha4beta7, albumin as control coat

T1 sequence (P13612 34-1032, chain 1 of 2): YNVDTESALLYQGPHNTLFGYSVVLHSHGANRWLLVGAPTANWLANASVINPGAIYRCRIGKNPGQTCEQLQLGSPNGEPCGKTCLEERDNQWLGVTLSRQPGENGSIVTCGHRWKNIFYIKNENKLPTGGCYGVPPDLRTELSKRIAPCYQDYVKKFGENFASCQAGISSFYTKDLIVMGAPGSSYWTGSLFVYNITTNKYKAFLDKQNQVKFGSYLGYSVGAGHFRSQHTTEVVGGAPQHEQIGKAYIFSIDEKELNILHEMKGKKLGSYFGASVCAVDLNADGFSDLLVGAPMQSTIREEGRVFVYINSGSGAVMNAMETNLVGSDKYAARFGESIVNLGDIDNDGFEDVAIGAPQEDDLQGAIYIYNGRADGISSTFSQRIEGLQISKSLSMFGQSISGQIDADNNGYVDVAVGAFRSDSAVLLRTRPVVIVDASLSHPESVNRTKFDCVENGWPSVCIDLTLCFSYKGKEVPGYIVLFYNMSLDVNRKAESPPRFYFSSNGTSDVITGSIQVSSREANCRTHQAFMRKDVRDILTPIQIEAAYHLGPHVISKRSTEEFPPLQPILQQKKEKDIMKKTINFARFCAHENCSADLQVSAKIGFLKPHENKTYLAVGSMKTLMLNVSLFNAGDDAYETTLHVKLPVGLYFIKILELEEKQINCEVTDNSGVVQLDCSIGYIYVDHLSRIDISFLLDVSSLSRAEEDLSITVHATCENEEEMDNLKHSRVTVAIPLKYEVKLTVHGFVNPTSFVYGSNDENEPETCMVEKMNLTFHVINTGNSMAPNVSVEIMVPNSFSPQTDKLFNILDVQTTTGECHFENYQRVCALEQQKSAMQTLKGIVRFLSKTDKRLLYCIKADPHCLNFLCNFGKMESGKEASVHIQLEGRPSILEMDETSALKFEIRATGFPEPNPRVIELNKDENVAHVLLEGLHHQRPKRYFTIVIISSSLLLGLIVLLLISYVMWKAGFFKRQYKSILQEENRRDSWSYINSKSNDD
T1 sequence (P26010 20-798, chain 2 of 2): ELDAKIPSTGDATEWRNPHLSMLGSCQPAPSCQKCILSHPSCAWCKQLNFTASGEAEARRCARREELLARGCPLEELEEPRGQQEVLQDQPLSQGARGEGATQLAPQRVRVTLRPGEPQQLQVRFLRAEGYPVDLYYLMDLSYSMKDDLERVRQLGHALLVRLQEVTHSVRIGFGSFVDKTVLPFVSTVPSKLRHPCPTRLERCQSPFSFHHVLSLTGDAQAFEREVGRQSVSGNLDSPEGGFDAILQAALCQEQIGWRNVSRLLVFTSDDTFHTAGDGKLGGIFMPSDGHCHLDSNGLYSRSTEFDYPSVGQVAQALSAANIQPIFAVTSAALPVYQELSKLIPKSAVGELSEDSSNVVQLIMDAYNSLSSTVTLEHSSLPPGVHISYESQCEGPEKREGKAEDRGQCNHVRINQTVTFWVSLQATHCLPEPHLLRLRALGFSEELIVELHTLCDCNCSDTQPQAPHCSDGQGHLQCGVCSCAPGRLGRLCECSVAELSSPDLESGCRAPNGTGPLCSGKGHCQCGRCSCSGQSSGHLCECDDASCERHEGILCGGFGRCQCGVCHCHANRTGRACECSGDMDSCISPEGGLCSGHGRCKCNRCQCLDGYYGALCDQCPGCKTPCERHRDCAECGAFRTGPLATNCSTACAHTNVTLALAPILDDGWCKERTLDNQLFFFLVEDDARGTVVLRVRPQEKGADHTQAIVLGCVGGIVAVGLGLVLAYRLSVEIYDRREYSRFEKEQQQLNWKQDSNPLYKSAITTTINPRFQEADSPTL
Chain of alphaEbeta7 on alphaEbeta7-transfected 293 cells (human) (P38570 19-1179, chain 1 of 2): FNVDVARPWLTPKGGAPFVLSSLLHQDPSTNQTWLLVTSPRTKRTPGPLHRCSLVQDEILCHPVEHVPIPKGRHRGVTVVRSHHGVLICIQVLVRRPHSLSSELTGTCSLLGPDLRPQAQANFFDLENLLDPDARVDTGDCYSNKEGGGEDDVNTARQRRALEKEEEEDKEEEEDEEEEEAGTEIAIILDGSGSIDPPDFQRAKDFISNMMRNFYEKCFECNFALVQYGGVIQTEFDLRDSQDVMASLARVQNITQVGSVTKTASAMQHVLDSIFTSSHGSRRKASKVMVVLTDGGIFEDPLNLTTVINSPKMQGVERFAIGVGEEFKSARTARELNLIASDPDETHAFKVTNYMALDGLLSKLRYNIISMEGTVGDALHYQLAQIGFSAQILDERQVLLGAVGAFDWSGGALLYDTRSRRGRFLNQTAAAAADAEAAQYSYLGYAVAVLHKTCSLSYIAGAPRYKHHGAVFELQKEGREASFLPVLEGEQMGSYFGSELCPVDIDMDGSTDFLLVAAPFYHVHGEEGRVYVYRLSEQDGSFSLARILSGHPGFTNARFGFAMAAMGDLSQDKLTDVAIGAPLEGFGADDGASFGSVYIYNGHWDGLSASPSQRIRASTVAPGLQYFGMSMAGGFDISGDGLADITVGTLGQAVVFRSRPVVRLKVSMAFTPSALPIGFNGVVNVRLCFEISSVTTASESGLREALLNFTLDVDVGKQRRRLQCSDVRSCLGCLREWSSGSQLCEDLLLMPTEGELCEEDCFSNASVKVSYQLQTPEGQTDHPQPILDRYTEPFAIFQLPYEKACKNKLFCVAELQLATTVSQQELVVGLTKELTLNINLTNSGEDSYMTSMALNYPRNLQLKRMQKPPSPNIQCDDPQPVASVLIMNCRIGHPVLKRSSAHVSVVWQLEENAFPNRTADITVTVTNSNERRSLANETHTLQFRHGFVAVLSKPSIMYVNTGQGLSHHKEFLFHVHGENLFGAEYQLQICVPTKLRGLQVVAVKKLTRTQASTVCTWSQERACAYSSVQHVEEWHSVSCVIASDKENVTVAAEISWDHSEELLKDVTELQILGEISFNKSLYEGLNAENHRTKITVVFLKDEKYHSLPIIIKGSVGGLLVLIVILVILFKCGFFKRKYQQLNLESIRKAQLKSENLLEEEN
Chain of alphaEbeta7 on alphaEbeta7-transfected 293 cells (human) (P26010 20-798, chain 2 of 2, further chain): as the sequence (P26010 20-798, chain 2 of 2) above

Question: Which IC90 [1] does the source give for HP2/1 (anti-alpha4, control) (antibody) here?
Answer: > 100 nM

Question: What about the IC90 [2] of the same molecule?
Answer: > 100 nM

Question: And the IC90 [3]?
Answer: > 100 nM

B1: Fib504K-RF graft (Fib504K graft in the RF acceptor framework), Fab (Fab, V domains shown)
VH: EVQLVESGGGLVQPGGSLRLSCAASGFFITNNYWGWVRQAPGKGLEWVGYISYSGSTSYNPSLKSRFTISRDTSKNTFYLQMNSLRAEDTAVYYCAMTGSSGYFDFWGQGTLVTVSS
VL: DIQMTQSPSSLSASVGDRVTITCRASESVDTYLHWYQQKPGKAPKLLIKYASQSISGVPSRFSGSGSGTDFTLTISSLQPEDFATYYCQQGNSLPNTFGQGTKVEIKR
notes: number not given; also called hu504K-RF graft
Question: B1 was tested. Which Kd [4] did it give?
Answer: 132 nM

B2: Variant hu504.16, Fab (Fab, name in Kabat numbering, V domains shown)
VH: B1 VH
VL: B1 VL with Y32L
notes: Clone from the Fib504K-RF library with an HVR-L1 change; Tested as Fab; also called Variant 504.16
Question: With B2 as the molecule, how does the Kd [5] read?
Answer: 23 nM

Question: And the Kd [6]?
Answer: 23.4 nM

B3: Variant hu504.5, Fab (Fab, name in Kabat numbering, V domains shown)
VH: B1 VH
VL: B1 VL with T31S, Y32L
notes: Tested as Fab; also called Variant 504.5
Question: How did the Kd [5] turn out when B3 was run?
Answer: 9 nM

B4: Variant hu504.32, Fab (Fab, V domains shown)
VH: B1 VH
VL: B1 VL with T31D, Y32L
notes: T31D and Y32L in the light chain of the hu504 Kgraft; Tested as Fab; also called Variant 504.32; humanized variant 504.32
Question: With B4 as the molecule, how does the “fold tighter binding relative to the starting rat antibody” value [7] read?
Answer: 3 fold

Question: What about the Kd [5] of the same molecule?
Answer: 3 nM

Question: And the Kd [6]?
Answer: 3.5 nM

B5: Fib504 graft (direct HVR graft of rat Fib504 into the human acceptor framework), Fab displayed on phage (Fab, V domains shown)
VH: B1 VH with R71A, F78A
VL: B1 VL with K49Y
notes: Tested as monovalent Fab-g3 on phage (VH-CH1 fused to truncated P3); also called hu504 graft; humanized504 graft
Question: Does B5 bind [8]?
Answer: no binding

B6: Fib504-RF (Fib504 graft in the RF acceptor framework), Fab displayed on phage (Fab, name in Kabat numbering, V domains shown)
VH: B1 VH
VL: B1 VL with K49Y
notes: It is built from the Fib504 graft chains with the RF framework changes; Tested as Fab on phage; also called hu504-RF
Question: Does B6 bind [9]?
Answer: no binding

B7: Fib504 Kgraft (HVR graft that also includes VL position 49K), Fab displayed on phage (Fab, V domains shown)
VH: B1 VH with R71A, F78A
VL: B1 VL
notes: Tested as Fab on phage; also called hu504 Kgraft; hu504K graft
Question: Does B7 bind [8]?
Answer: no binding

B8: chimeric Fib504 Fab (Fab, V domains shown)
VH: EVQLQESGPGLVKPSQSLSLTCSVTGFFITNNYWGWIRKFPGNKMEWMGYISYSGSTSYNPSLKSRISITRDTSKNQFFLQLNSVTTEDTATYYCAMTGSSGYFDFWGPGTMVTVSS
VL: DVVMTQSPATLSVTPGERISLSCRASESVDTYLHWYQQKPNESPRLLIKYASQSISGIPSRFSGSGSGTDFTLSINGVELEDLSIYYCQQGNSLPNTFGAGTKLELKR
notes: Rat Fib504 variable domains in a chimeric Fab; the constant domains are not specified
Question: With B8 as the molecule, how does the Kd [5] read?
Answer: 11 nM
